This note sets out measurements from a protein production outcome set (Wang et al. 2014).
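Further: failed if final PepcDB status was selected cloned or expressed and not failed if soluble or beyond.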

This data set can be described thus: label from the status in PepcDB records.
For “MLKFLKNWTLPIAMLVGAVGYPVFISFSFLTPILIFTMLLLTFCKVSPRDLKPKPLHLWLLLIQIFGSLIVYLLLYRFNKIVAEGAMVCVICPTATAAAVITSKLGGSAASLTTYTLIANIGAAIAVPILFPLIEANPGISFIDAFLVILSKVFPLLICPFLAAWFLQRFIPKVHKVLLGYHELAFYLWGISLAIVTAQTLYSLINDPADGLTEIMIAVVALIACCLQFFLGKTLGSIYNDRISGGQALGQKNTILAIWMAHTYLNPLSAVGPGSYVLWQNIINSWQLWKKRKKESEKCSNNVSG”, the protein production result is “failed”. In the case of “MQKFFQRIWQWIQQLFAPLVGGPGPGTKSLQELPPLSDTDYEFLFNQLLEGIAHGWHEGRILKFFQQLDHRCRPKQWLDWLDRFQTTVLASPSPNLVLAARMMRLGELAQSFPQIAPIGDKSQRIGRELYARQSPPQMDTVWEYDGPDLVSIDQAQGQMETFTFDELVQRLPQDAALATHFAGFLGIESTDPQVILRALMEKFAIPEEMLTEALNHGGESSSAPVDSLVEDQGTASALAQEELWPLVDPVTIDNSQFENNQEPHTAEDWLNLGIQQAQRGELETAIASWGEAISLNPQMTSAWQNRGSALGVMGKLEEALANFDEALAQNPDDAEVWLSRGLLLEAMERKEEAIPSYEKALTLEPTLPEAQERLEELQGLLSQD”, the protein production result is recorded as “failed”. For “MEDDVTTTERLPAPPLDTASKRVGFISLGCPKALVDSERILTQLRAEGYEVAPSYEGADAVIVNTCGFITPAVEESLSAIGEALDATGKVIVTGCLGERPEKIMERHPKVAAITGSEAVDDVMGHVRELLPIDQGAFTGLLPVAAPGMRAGVETPQRENTRHGDVFAPSVKLTPRHYAYVKVAEGCNHTCAFCIIPKLRGLQVSRDAGAVLYEAYRLIAGGTKELMIIAQDTSAYGVDLRYRESEFQGEQVRAHLTDLAVKLGEMGAWVRMHYVYPYPHVDRVVELMAQGKVLPYLDIPLQHASPKILKLMRRPGAGKQLDTIRRWREICPELVIRSTFIVGFPGETEEDFQELLQFLEDARLDRVGAFPYSDIEEADANALPGAVPEEVKQERLARFMEVAQRISTEKLSEKVGRVMDVIIDEFNDDEDDQPGTRLIGRTKGDAPGIDGQVYLYAGDFAGLVKIGDIVRARIEDSDEYDLFGEVIEKPEWKPNVPQLGHFGKH” the value was “failed”; for “MNVDILKQRAKAFDYVFDAIVVTDLQGFIIDWNKGSETLYGYSKEQAIGQPVNMLHVPGDTEHITSEVISAVENQGKWTGEIRMLHKDGHIGWIESMCVPIYGENYQMVGALGINRDITLEHHHHHH”, “not failed”; for “MPKFYCDYCDTYLTHDSPSVRKTHCSGRKHKENVKDYYQKWMEEQAQSLIDKTTAAFQQGK”, “not failed”.

Turning to “MTNLLVIGATGNIGQPLIRDLQDDPDVHLFAGVHNSEHAKQALNGLKVQVRRFDFLDPATFEQALADIDKVFFVRPPQLAKPKEDMYPFLDALVARHVKQVVFVSLLGVAHNPMTPHHQIEKRIVELGLPYTFIRPSFFMQNLNTTHQADIVGHRDLFVPAGHARTSFIDTRDIGATAAVILRDPAYIGQKLDITGAQALTYADAAQIMTMELGVPITYSKPSLWRFRKVMLQRGLPKNYVNVMVMLYLITQLGNAKTVTTTLPNVLGRPAISFEQYVHDYRAEFLPKPLSLEHHHHHH”, the protein production entry is “failed”. As for “MIEEAPPHPSAPMAASPSVTTALKHAPLGIAIFDNQMRYLAASRQYLTDQHLPPDLPLIGRLHYDAFPEVPQKWRDLHARVLAEGVELRHEGDPYVDREGRTQWIRWSMAPWRTDGGGIGGLVLYTEVVT”, the protein production result is on record as “failed”. For “MNVEGMATGGIHMELHCPKCQHVLDQDNGHARCPSCGEFIEMKALCPDCHQPLQVLKACGAVDYFCQHGHGLISKKRVEFVLALEHHHHHH” the value was “failed”. The result for “MKKTLPKTEAPSSVGNGSDSPIEFDAIIRQVPDMDAAYVEIPFDVKTVYGKGRVRVNATFDGYPYTGYIVRMGLPCHILGLRQDIRRAIGKQPGDSVYVTLLPL” reads “not failed”. Take “MLIPQQKELNSISLLAEVSRTVTNENDISKVLRIVLFIMSEHLDMLRGMITILNRETGEITTNESFGLTEEEMERGRYRIGEGIIGQVVKTGKPFIVPNIGDEPLFLDRTRSRQKTKKENLCFICIPIRSGAEIIGTLSADRQLEPSLLKESGKRMKAEDERMDLLQHYVDLLSIIASMISQAVRLKQIAHEATAGIAVVEHKPQQEK”: the protein production result is “failed”. The result for “MTFTDALGQAHAPVDTTPRIASLVPSITDLLFSLDLGGQLVARTGFCIHPREAVRAIPKVGGTKTVKLDRLRELAPTHVIVNIDENTRETADKLREFVPHVIVTHPCAPEDNLTLYGLLGGIFRREAQAQRLSEALARELAALRGQVFPLRRVLYAIWQDPWMTVARDTYISRMLALIGCQTWPEDPAPVQCGTGRHGDCARPNRPDTRYPTFRWSDEVVRNIDCVLLSTEPYSFTEAHADALEKQIGKPVYLVDGEMVSWYGSRAIEGVRYLGRLAQALT” reads “failed”; that for “MVDGEVEILRGYELRLLRCTVSFPQTGSPLESQPLDGTQSGTHPHDSLITSLLSSIEAGDYLGALSSDATKLILGDSELNLVDTVDSAEQVYSELLDKVESFVVNDSSDEIDKARRAVLVMCLAIATALWFTRCNLTGSTEGSTKCSLPLRVSESKELVEWENWAKIQLMSVGSDLLGKFSNLQHLVFARLLLFKLKDLLFEITSTETFEVRSISWWLVRVLLIHQRVLQERSSSLFEMLQVYMAEAIDHFGELEKVKSYWGANLLEDEASSITSTIHLEACVLQYIYGRIDPSRLQLESAKAAASLEFSVTGALGFRTIHQVDPKAQMVLVANTSSSNGDVRLASEKADVGPYEAWGGEAPEVYMTPKLVNNESEAGKDSVPLKPVEQALILAQCLLIERGSRHDEMQRWDMAPYIEAIDSQKSTYFVLRCFCDLLRVRWESTRGRTKGRALEMMDKLVGAINKSDPGVSNRIPLCYAVHLPTIPALRKEYGELLVSCGLVGEAITIFESLELWDNLIYCYCLLGKKSAAVDLINARLLERPNDPRLWCSLGDVTINDSCYEKALEVSNDKSVRAKRALARSAYNRGDFEKSKMLWEAAMALNSLYPDGWFALGAAALKARDVQKALDAFTFAVQLDPDNGEAWNNIACLHMIKKKSKESFIAFKEALKFKRDSWQMWENFSHVAMDVGNIDQAFEAIQQILKMSKNKRVDVVLLDRIMTELEKRNSACKSSSSSTETEASSDESTETKPCTATPAETQRQLELLGKVIQQIVKTESTAEIWGLYARWSRIKGDLTVCSEALLKQVRSYQGSEVWKDKERFKKFARASLELCRVYMEISASIGSKRELFTAEMHLKNTIKQATVSFLDSEELKELESCLEEVRNVMQKSEEEYRDTKT”, “failed”; that for “MERKLSNGCVASKSEELAKQQLPPPPDQDQEQPALQPPKVNGLKENQAVKHNNNNNTNNNNNKNGLVNGNAKKDELKAAEDHDTQSKEDDDPKEKVVKPKLNGNLIKNPIDKTAETQDKIAQPAPEPPLPKRPKLETPTSNEVTKANGQLVQQQLESRESEEEPQHVDE”, “failed”. The result for “MNRNLLLFASGSFVSLIGTRIYQVALAWWLYSKTGSSEYVGLFMISSFLPAIIVSPFAGTVVDRHSRRNMMVVMDILRGVLFMYLFLMEYFSELTMALLLIVTVLVSVFDSFFNPAVDSLLPDLVRKENLVRANSLYRLLKNLSKILGPALGSLLLKVVGLAGVILINSLSFLISGIFEMFIKVEEKHLKKVSKERNMWQDIKSALLYIRSVRFILVTILVIAIMNFFTGSMHVLLPEHVSKLGKSEWVYGTLMSMLSFGGLIVTFLMATIRTRASVKTLGLNLVGYGLAVFVFAMTGNHWLMFAMYFLIGIFQTLFNINVITLLQLAIPEEMRGKIFSLISAVSFSLLPVSYGFFGFLSSYVATAHIFITTSMALIAGGVLISLQRFEG” reads “failed”; that for “MTQIIKIDPLNPEIDKIKIAADVIRNGGTVAFPTETVYGLGANAFDGNACLKIFQAKNRPVDNPLIVHIADFNQLFEVAKDIPDKVLEIAQIVWPGPLTFVLKKTERVPKEVTAGLDTVAVRMPAHPIALQLIRESGVPIAAPSANLATRPSPTKAEDVIVDLNGRVDVIIDGGHTFFGVESTIINVTVEPPVLLRPGPFTIEELKKLFGEIVIPEFAQGKKEAEIALAPGMKYKHYAPNTRLLLVENRNIFKDVVSLLSKKYKVALLIPKELSKEFEGLQQIILGSDENLYEVARNLFDSFRELDKLNVDLGIMIGFPERGIGFAIMNRARKASGFSIIKAISDVYKYVNI”, “not failed”; that for “MSEPFSVPVTVRGYETDTQGHLNQSVYLNYAEHARWSLLQAAGIRQADLVARGVGPVALETTIRFQRELLAGDEVTVTCAFEWGTGKTFRIRQLVTKADGTVAAEIEAVGGLMDLGERRLVPDPRQRFKELAARPELFGLLEHHHHHH”, “failed”. Take “MRVPALKPILLQLHSVAGLVLAAVLVLVALTGAVMSFEDEIRGALDAGRVQLAPHAGSRMPLDALIAKLQAGGDPVASITMPRSAASAAEVRFARKPDHTRPAPLYLDPYTGESLGHPAADAFFATVRKLHRWLLLPGDGNGYGRTITGVAALGLLAMLLTGLVLRWPHRPGSIKVWLKPHWQLRGRGLHRSLHAVIGTWVLLLYLIMTLTGLWWSFDWYKTAATWLLARSPVTMQPPNRAAVTAAPSAAISLDRVWATLVAERGDRFEAARLTLPSGREGTVRVRAWLTDARDGAHDEFRIDGRSGQVLSADIYADKTIGEKVLARVLDIHRGSIFGWPGQLLFMLAAAAMPLFGVTGVLLYLSRRRHQRMQRAARAKVG”: the protein production entry was “failed”. The result for “MTEKEKMLAEKWYDANFDQYLINERARAKDICFELNHTRPSATNKRKELIDQLFQTTTDNVSISIPFDTDYGWNVKLGKNVYVNTNCYFMDGGQITIGDNVFIGPNCGFYTATHPLNFHHRNEGFEKAGPIHIGSNTWFGGHVAVLPGVTIGEGSVIGAGSVVTKDIPPHSLAVGNPCKVVRKIDNDLPSETLNDETIK” reads “not failed”; that for “MSLSKTFLNELANQALTNPNDFTKGEKKQESFLLEYVSANPTGPLHIGHARGAVFGDTLTRLARHLGYKFNTEYYVNDAGNQIYLLGLSILLSVKESILHENVEYPEQYYKGEYIVDLAKEAFEKFGKEFFSEENIPSLADWAKDKMLVLIKQNLEQAKIKIDSYVSERSYYDALNATLESLKEHKGIYEQEGKIWLASSQKGDEKDRVIIREDGRGTYLAADIVYHKDKMSRGYGKCINIWGADHHGYIPRMKAAMEFLGFDSNNLEIILAQMVSLLKDGEPYKMSKRAGNFILMSDVVDEIGSDALRYIFLSKKCDTHLEFDISDLQKEDSSNPVYYINYAHARIHQVFAKAGKKIDDVMKADLQSLNQDGVNLLFEALNLKAVLNDAFEARALQKIPDYLKNLAANFHKFYNENKVVGSANENDLLKLFSLVALSIKTAFSLMGIEAKNKMEHEGHHHHHH”, “not failed”. For “MHRGKETSTKPKKPVTRRKDFSASGKGKKRKKRRVHKMKPWQIALICVGAFIAALLAFGLMYVYAKWSKIDTKSIKADDIIINEEVKKNKNVDLGDGYTNVALFGVDSRDGDLGEGNRTDCIIVASLNNKTKEIKMVSVYRDTLLDLSEGTYQKCNAAYSYGGPVLAINMLNMNLDLDIQDYVTVDFGAIADAVDLLGGIEIEVTEEELPYINQYIPETANSAGKAANLLQSAGLQKLDGTQATTYARIRSTAGGDFTRTERQRLVIEKMFEKAKGADIGTLNKIIDKVFPQVSTSFTLPEILKYASAYSEYKLVGNMGFPEDKYTDMLSEIGSVVVPDNLVSNVTKLHEFLFGITGYVPSSTVQTVGSNISYTASAKKSSGTGSQSSYDSGESYNDSGYTDNSGNYEGGNTGGNYDDGSMSGNSGNTGNSGETGGVGGNGSTGDNTGGTTVEPPVVPDGGTDSGGGQTEAPPEGTVQ” the value was “failed”.
